Results from the DeepSol protein solubility set.

Assay: soluble on expression in E. coli; label from the status in PepcDB or PDB records
In the case of “MKRYSTKHFKRILIANNVNIDIDLKTGIVAKNMAKKEKIEQVISMGGIMWEGLNSSLIKVDEALLKQQI”, the “soluble on expression in E. coli” value is reported as “soluble”.
For “MQLPLSYWIESTQFPTFPRLSENIKTKVAIIGAGITGITTAYLLAKEGIDVVLIDSGRILNGTTGHTTAKVTAQHDLIYDELINHFGVEKARLYYESNNQALQFINKTVQTYKIDCNFSNEDSYLYTTTDNGLRNLSKEYEAYQKLNIPCDYVQSLSIPIPVQSALVMKNQAQFHPLLYLKTLLEKFVEMGGKVYEQTTAMDVEKGDYSQIITKEGHHITCEYVVSCSHFPFYDANSFFFTRMYAERSYALAIKAKTEYPGGMYLSIDDPKRSLRYITNNGEKLILIGGESHKTGQGINTMLHYEALYSFAEATFGIDEVSYRWSAQDLITLDKLPYIGHINERNPNIFVATGYRKWGMTTGTAAAHLLKDSILKVHSPYKELYAPSRFHANPDIKTFLSQNIDVAKHLIAGLEHHHHHH”, the “soluble on expression in E. coli” value was “not soluble”.
For “MDLFADAPLTLPDADLRYLPHWLDAPLASAWLLRLEQETPWEQPILRIHGEEHPTPRLVAWYGDPDAAYRYSGQVHRPLPWTALLGEIRERVEREVGQRVNGVLLNYYRDGQDSMGWHSDDEPELRRDPLVASLSLGGSRRFDLRRKGQTRIAHSLELTHGSLLVMRGATQHHWQHQVAKTRRSCMPRLNLTFRLVYPQPLEHHHHHH”, the “soluble on expression in E. coli” value was “soluble”.
With “MGQPPAEEAEQPGALAREFLAAMEPEPAPAPAPEEWLDILGNGLLRKKTLVPGPPGSSRPVKGQVVTVHLQTSLENGTRVQEEPELVFTLGDCDVIQALDLSVPLMDVGETAMVTADSKYCYGPQGSRSPYIPPHAALCLEVTLKTAVDLEHHHHHH” the “soluble on expression in E. coli” value was “soluble”.
With “GGSGPLKPEEHEDILNKLLDPELAQSERTEALQQLRVNYGSFVSEYNDLEEKVAHAKEENLNMHQMLDQTLLELNNM” the “soluble on expression in E. coli” value was “soluble”.
With “MGSDKIHHHHHHMQYTELVPGTLIRRYKRFLADVALASGDVVVAHCPNTGSMRAVDVPGCRVWLSPSRNPARKLAWTWELIELPMPDAPPALVSVHTGRANALVAQALQEARIPELAGYDTHKREVRVADARLDFRLSTAHAAAYVEVKQVTLREHDGHGYFPDSVSERGRRHLEALAARVAEGDRAVLLFCVAHTGIDAVAPAAHLDPAYAETLRRVAAQGVEVLAYGMSATWTHDGVPGDIALTRALPVSLERRLASATPLSD” the “soluble on expression in E. coli” value was “not soluble”.
With “MAKRGRKRKVSKDEENTTPEPEMKKKADEKVVELDEKDWMPSAALEFFENENFKEIVENLSHLDNSVTLVGPFRKLRGESDADGTDLIMLDREMTDLPEMQTFMKCSHGRYAFWRDKPNDKKPVIVFMDLKTIPDLSVVGNEIRHAILDFCTRCSKCIDCSAKSKAANSKIQSFFTPSKISSEVKEVLKHREKTTVRGISGPGMLIDVVPTGNSGKKNKKNERTGYRDLSKNAYCINIEHLVRSLRLCQTKEQEEKVLDFVYGLMNEINICNDEGDFGNGLELGHILFLANMKAVADPMMITLHIAYKNLHRPDFAKILDLTLSLRDQQEEAT” the “soluble on expression in E. coli” value was “soluble”.
In the case of “QEGTSPMQKETRFLPGTNVEYEDYSTFFDKFSASGGFVLFNSNRKKYTIYNRKESTSRFAPASTYKVFSALLALESGIITKNDSHMTWDGTQYPYKEWNQDQDLFSAMSSSTTWYFQKLDRQIGEDHLRHYLKSIHYGNEDFSVPADYWLDGSLQISPLEQVNILKKFYDNEFDFKQSNIETVKDSIRLEESNGRVLSGKTGTSVINGELHAGWFIGYVETADNTFFFAVHIQGEKRAAGSSAAEIALSILDKKGIYPSVSR”, the “soluble on expression in E. coli” value is reported as “soluble”.
In the case of “YQPNYFLSIPITNKKITAGIKVLQNSILRQDNRLTKAMVGDGSFHITLLVMQLLNEDEVNIGTDALLELKPFVEEILEGKHLTLPFHGIGTFQGQVGFVKLADGDHVSALLEIAETAKRTFQEKGILAGESRTFKPHLTFMKLSKAPMLWKKGVRKIEPGLYEQFIDHRFGEEILYQIDLCSMLKKKQSNGYYHCESSIVIGEKD”, the “soluble on expression in E. coli” value is reported as “soluble”.
In the case of “MSLNTENIRIIALGGVGEIGKNLYVIEIDSDIFVVDAGLMHPENEMLGIDVVIPDISYLIERSDRVKAIFLTHGHEENIGGVFYCLNKLSVPVYGTKLTLALLKETLKQYGVNKKPDLREIHSKSVITFESTKVSFFKTNHSIPDSVGVSFKTSLGSIVCTGDFKFDQTPVLNQTSDIGEIAKIGNSGVLCLLSDSANAEKPGYTPSEALVGGEISDVMYNAENRVIIAVFASNFNRIQQVIDAALQNGRKLAVSGKNISAILQLAMKLGYVTADEDMFIPVQEVKKYPKREVAILTGDNHGEPLAALTRIAKQGHKQLDIEEGDTVLIASSPIPGQELVYSKAVDLLTRAGAQVVFAQKRVHVSGHGCQEELKLMLNLLKPKYLIPVNGEYRMQKAHSKLAEEIGMKRSDIFLIEKGDVVEFRGQNVKIGDKVHSGNILIDGLGVGDIGNIVLRDRRLLSQDGILIVVITLDKKKKHLVSGPEIITRGFVYVRESEQLIVEATELVRELVNESTENAVVEWSALKQTMREALNQFLYEKTKRKPMIIPIIMEEGHHHHHH”, the “soluble on expression in E. coli” value is reported as “soluble”.
In the case of “MPIGHSREVLVRLRDILALLADGCKTTSLIQQRLGLSHGRAKALIYVLEKEGRVTRVAFGNVALVCLSMDQYRQLVDGMIREVERLVTTNKLKFISPPRLHDLIIKDPQARKFFSSIIPIAHRTAIILSFLNHLLKMIYGEPYVKTDETVYLTANRKVHIEPPAK”, the “soluble on expression in E. coli” value is reported as “soluble”.
With “MKRANAVKLIVGKETHEKLKELAIVAAKCWNEVNWLRMQQFKEGERVDFSKTEKEVYEKYKQILKVNTQQVARKNAESWRSFFSLIEEKKGKLPKWFKPRPPGYWKDKSGKYKMLIIIRNDRYEIDEEKRIIYLKDFKLSLSFNGKLKWRGKQGRLEIIYNEARRSWYAYIPVEVQNDVKAEDKLKASIDLGIINLATVYVEDGSWYIFKGGSVLSQYEYYSKRISVAQKTLARHKQGRSREMKLLHEKRKRFLKHALNSMVRKIMEEFKNKGVGEIAIGYPKEISKDHGNKLTVNFWNYGYIIRRFEGVGEELGVKVVKVDEAWTSKTCSLCGEAHDDGRIKRGLYRCLRIGKVINADLNGAINILHIPESLGAGSRGQLTVRDRGNGLKTQPAVYRWTNGAGWVSSPTSYEVMKMKAVNCKPMNRHKGTFTLLEHHHHHH” the “soluble on expression in E. coli” value was “not soluble”.
With “MSLLADLVNLDISDNSEKIIAEYIWVGGSGMDMRSKARTLPGPVTDPSKLPKWNYDGSSTGQAPGQDSEVILYPQAIFKDPFRRGNNILVMCDAYTPAGEPIPTNKRHAAAEIFANPDVIAEVPWYGIEQEYTLLQKDVNWPLGWPIGGFPGPQGPYYCSIGADKSFGRDIVDAHYKASLYAGINISGINGEVMPGQWEFQVGPSVGISAADEIWIARYILERITEIAGVVVSFDPKPIPGDWNGAGAHTNYSTKSMREEGGYEIIKKAIEKLGLRHKEHISAYGEGNERRLTGHHETADINTFLWGVANRGASIRVGRDTEKEGKGYFEDRRPASNMDPYVVTSMIAETTLLWNP” the “soluble on expression in E. coli” value was “soluble”.
With “MICLEKVEDIPRLQELFAQILIVHHQARSDVLKVKGSKFTDKELEGVIGDANKPVFVYEDEAGTILCHLFLIIKEVSENDGPQKPIKTLFIDDLCVEEKARGQKLGEKLYQFALDYATEQECYNATLHVWNDNQGTLDFYEHLGVKPRYTEMKTVLKLEHHHHHH” the “soluble on expression in E. coli” value was “not soluble”.
For “MRGDDMHIYELVSRDRTHPVRIYLLHSEYWTEDEFYNLLLEAFQRSSASDWHLQILEVSKYLVTAHGFVEAGGLQEIGFPGELSKTEVRRRINAFLGKDRSD”, the “soluble on expression in E. coli” value was “soluble”.
In the case of “MSLKDYRLFLIDLDGTIYRGKETIESGVRFVKRLDEAGLDYLFLTNNTTRTPQMVADKLAGHGVKTDVSKIYTPSMATASYILEKEAKRPIGVYIIGQIGLWKEILDRPEFYYDEENPDYVIVGMDTDLTYHKLMVATRCIHRGAVFIGTNSDQNLPVGKELRPGNGSICAALEVASGQKPLFIGKPEAIIVNRALDLAGVKAEEALIVGDNYPTDIMAGINSGVDTLLTLTGVTQKADLAGLTPPTYLVNDLDEFSEGHHHHHH”, the “soluble on expression in E. coli” value is reported as “soluble”.
In the case of “MLEHLIKISRRNWSSLKVIILAGGRGKRITLFKPFLVVCGKPLISWAFDAVNKLSDKVYLGINQSHPLFTIFKHSIFKIFPTPDISYENDVKYVVESLGPPILVLPVDIAFINNNIINNLIERCAVDMCTLKSYGSYLGVTYWTGLNFSNYTDIEVKEKLYNINTWEDYIKANKECNILLEHHHHHH”, the “soluble on expression in E. coli” value is reported as “soluble”.
In the case of “MISDRPGLPGEDMRLALLSFENYLLANRNTEKPVLHIALSPAPEDKLTDEQLAELAQNYMQKMGYGDQPYIAYKHGDTHNTHIHIVSVCVDEEGRKINDSFEHRRSMTACRELEIDFGLRNGADMEERNQKAEMKKVDATQGDVRHQIGNTLKAVLESYRFQTFGEYSALLSTLNIEAKQVRGEFKGEPYTGIIYSATDDSGKVVSPPFKSSRFGKRFGNERLEKRMLSHTRDFKDGKWAPTIHAQVVYAMRHARSREELAGLLKKARIDAVFRENEQGRIYGVTFIDHNRREVFNGSRMGKEFSANIYNELFKWWDGIPATERSAHTGTELWQHHSHKAESGSPLEQAASIFSMETNPVDYGEEALARRMKKRRKAKRKSRGI”, the “soluble on expression in E. coli” value is reported as “not soluble”.
With “MPTTVNDLLRTYPADLGGVDREAMARCIEECLRCAQACTACADACLSEPTVADLTKCIRTDMDCADVCTATAAVLSRHTGYDANVTRAVLQACATVCAACGDECARHAGMHEHCRVCAEACRSCEQACQELLAGLGLEHHHHHH” the “soluble on expression in E. coli” value was “not soluble”.
In the case of “NLYFQSARFALTVVRHGETRFNKEKIIQGQGVDEPLSETGFKQAAAAGIFLNNVKFTHAFSSDLMRTKQTMHGILERSKFCKDMTVKYDSRLRERKYGVVEGKALSELRAMAKAAREECPVFTPPGGETLDQVKMRGIDFFEFLCQLILKEADQKEQFSQGSPSNCLETSLAEIFPLGKNHSSKVNSDSGIPGLAASVLVVSHGAYMRSLFDYFLTDLKCSLPATLSRSELMSVTPNTGMSLFIINFEEGREVKPTVQCICMNLQDHLNGLTETR”, the “soluble on expression in E. coli” value is reported as “soluble”.
In the case of “MSLYPDDSLTLHTDLYQINMMQVYFDQGIHNKKAVFEVYFRQQPFKNGYAVFAGLERIVNYLEDLRFSDSDIAYLESLGYHGAFLDYLRNFKLELTVRSAQEGDLVFANEPIVQVEGPLAQCQLVETALLNIVNYQTLVATKAARIRSVIEDEPLMEFGTRRAQEMDAAIWGTRAAVIGGANGTSNVRAGKLFDIPVLGTHAHALVQVYGNDYEAFKAYAATHKNCVFLVDTYDTLRIGVPAAIQVARELGDQINFMGVRIDSGDIAYISKKVRQQLDEAGFTEAKIYASNDLDENTILNLKMQKAKIDVWGVGTKLITAYDQPALGAVYKIVAIEDETGQMRNTIKLSNNAEKVSTPGKKQVWRITSREKGKSEGDYITYDGVDISYMTEIKMFHPTYTYIKKTVRNFDAVPLLVDIFKEGILVYNLPSLTDIQDYARKEFDKLWDEYKRVLNPQHYPVDLARDVWQDKMDLIDKMRKEALGEGEEEEGHHHHHH”, the “soluble on expression in E. coli” value is reported as “soluble”.
In the case of “MNVIEVEDVSFRYGNSREYSLRHINLEIRKGEFLGIIGPSGSGKSTFCLTLNGLIPHSIAGEFHGNVIVDGLNTREHSVSELSTKVGLVFQNPDSQLFNMTVLEEVAFALENLGIERDEMWRRIRWALKLVRLWDKREEFPPNLSGGEKQRLAIASVLVMKPKVLVLDEPTSQLDPLGREEVLGLIKLLNKEEKITIILVEHNTDFLLEHADRIVVFDKGRIVLEGKPEDVFENVEFLRTIGVKLPTRVKIGYELKKRGLVERAVLTRDEVVEVLKWAYLRGKS”, the “soluble on expression in E. coli” value is reported as “soluble”.
With “RHQVESSPLFRALALRCNQTMVTLRSANMFHAYGFLAKVFEILAKHKISVDLITTSEISVSLTLDQTDTSGGAPQLPQAAREELEELCKVEVEHDLCLVALIGNKMSERKGYAKQVFGTLEDLNLRMICYGASPHNLCFLVNESVAKQAIQKLHTELFEQ” the “soluble on expression in E. coli” value was “not soluble”.
